In patent US20220098591, “STEM-LOOP COMPOSITIONS AND METHODS FOR INHIBITING VASCULAR ENDOTHELIAL GROWTN FACTOR” (DRIVE THERAPEUTICS LLC, published 2022):

T1: VEGF-A165 (Homo sapiens)
T1 chain: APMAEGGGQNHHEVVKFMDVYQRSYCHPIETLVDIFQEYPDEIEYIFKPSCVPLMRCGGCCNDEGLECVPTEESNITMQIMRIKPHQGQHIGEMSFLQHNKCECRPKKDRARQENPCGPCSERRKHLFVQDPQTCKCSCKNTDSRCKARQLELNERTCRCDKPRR

B1: Aptamer 234 (ssRNA)
RNA: CGACCCGCGCGGAGGGGUUUCAUUAUCCCGUUUGUCG
modifications: G 2'-F except 2'-OMe-G as X in CXAC-Sp3-CCGCGCGGAGGGXUUUCAUUAUCCCGUUUXUCX; A,C,U 2'-OMe; Sp3 joins the two parts; 5' C6NH2; 3' idT

These binders were tested against T2, VEGF-A121 (Homo sapiens, UniProt P15692 SEQ:1-121) (assay: competition; TR-FRET). Settings: tags: glycan-biotinylated for SPR/FRET/AlphaLISA; Acro BioSystems, Biolegend; chain copies: 2 (stated).
Target sequence in this assay (P15692 other isoform, or with tags, fused parts or gaps): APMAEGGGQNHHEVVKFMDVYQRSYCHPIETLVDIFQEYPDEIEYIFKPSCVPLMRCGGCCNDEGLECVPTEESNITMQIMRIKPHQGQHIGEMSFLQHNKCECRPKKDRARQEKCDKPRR

Binding result, binds:
AGGCCGAACCGCGCGGAGGGGUUUCAUUAUCCCGUUUUUCGGCUU (ssRNA, all G 2'-F; A,C,U 2'-OMe; Sp3 joins the two parts; 5' C6NH2; 3' idT) [Aptamer 137]
AGGCCGUCCCGCGCGGAGGGGUUUCAUUAUCCCGUUUGACGGCUU (ssRNA, all G 2'-F; A,C,U 2'-OMe; Sp3 joins the two parts; 5' C6NH2; 3' idT) [Aptamer 142]
AGGCCGACCCGCGCGGAGGGGUUUCAUUACCCCGUUUGUCGGCUU (ssRNA, all G 2'-F; A,C,U 2'-OMe; Sp3 joins the two parts; 5' C6NH2; 3' idT) [Aptamer 187]
AGGCCGCUCCGCGCGGAGGGGUUUCAUUAUCCCGUUUAGCGGCUU (ssRNA, all G 2'-F; A,C,U 2'-OMe; Sp3 joins the two parts; 5' C6NH2; 3' idT) [Aptamer 144]
AGGCCGCACCGCGCGGAGGGGUUUCAUUAUCCCGUUUUGCGGCUU (ssRNA, all G 2'-F; A,C,U 2'-OMe; Sp3 joins the two parts; 5' C6NH2; 3' idT) [Aptamer 143]
AGGCCGAUCCGCGCGGAGGGGUUUCAUUAUCCCGUUUAUCGGCUU (ssRNA, all G 2'-F; A,C,U 2'-OMe; Sp3 joins the two parts; 5' C6NH2; 3' idT) [Aptamer 138]
AGGCCGUACCGCGCGGAGGGGUUUCAUUAUCCCGUUUUACGGCUU (ssRNA, all G 2'-F; A,C,U 2'-OMe; Sp3 joins the two parts; 5' C6NH2; 3' idT) [Aptamer 139]
B1

The binders below were run against T2, VEGF-A121 (assay: competition; TR-FRET; stem S1 mispaired). Settings: tags: glycan-biotinylated for SPR/FRET/AlphaLISA; Acro BioSystems, Biolegend; chain copies: 2 (stated).
Method: Briefly, for competition TR-FRET, 2-fold dilutions of thermally equilibrated aptamers were made in TR-FRET Buffer (50 mM MOPS, pH 7.4, 125 mM NaCl, 5 mM KCl, 50 μM CHAPS, 0.1 mg/mL BSA, 1 mM CaCl₂, and 1 mM MgCl₂). 5 μL of aptamer or control solution was added to a 15 μL mix of glycan biotinylated […] (5 nM final), ALEXA FLUOR® 647-labeled Aptamer (30 nM final), and Streptavidin-Eu (Perkin Elmer; 2.5 nM final) in a black wall low volume 384 well plate (Greiner). For control, 5 μl of 1000-fold excess of unlabeled parent aptamer or 5 μl TR-FRET buffer alone was added to the mix of ALEXA FLUOR® 647-labeled aptamer, biotin-VEGF-A, and Streptavidin-Eu. The plate was covered with a plate seal and subsequently incubated in the dark for 1 hour at room temperature. The plate was read on a Biotek CYTATION™ 5 plate reader. Samples were excited at 330 nm and fluorescent values were collected at 665 nm. Data analysis was performed by subtracting the background value and plotting as percent inhibition, normalized to baseline in the absence of competitor. The values were fit by [Inhibitor] vs. response-Variable slope (four parameters) using GraphPad Prism Version 7.0 and then normalized to aptamer control to obtain an IC₅₀ relative to parent aptamer. Data is presented as log values of relative IC₅₀. […]

Binding signal, > 100 fold worse IC50 vs Aptamer 26:
AGGCCGCAUCCGCGCGGAGGGGUUUCAUUAUCCCGUUUAACCGCUU (ssRNA, all G 2'-F; A,C,U 2'-OMe; 5' C6NH2; 3' idT) [Aptamer 180]
AGGCCGCAUCCGCGCGGAGGGGUUUCAUUAUCCCGUUUAACCGAUU (ssRNA, all G 2'-F; A,C,U 2'-OMe; 5' C6NH2; 3' idT) [Aptamer 181]

Target: T1, VEGF-A165
Assay: cell_activity; KDR phosphorylation; >50% at 100 nM with VEGF-A121
Settings: tags: glycan-biotinylated for SPR/FRET/AlphaLISA; Acro BioSystems, R&D Systems; chain copies: 2 (inferred)
Method: Briefly, HEK293 cells engineered to stably overexpress KDR were plated overnight in collagen coated 96 well plates at 50 k cells/well. Aptamers in SB1+ (40 mM HEPES, pH 7.5, 125 mM NaCl, 5 mM KCl, 1 mM MgCl₂) were heated to 90° C. for 3 minutes and allowed to cool to room temperature for a minimum of 10 minutes. […] 15 μL of VEGF-A was added to 15 μL titrated aptamer in a polypropylene plate and diluted to 300 μL with TS buffer (10 mM Tris pH 7.5; 100 mM NaCl; 5.7 mM KCl; 1 mM MgCl₂; 1 mM CaCl₂). The aptamer/VEGF-A mixture was incubated at 37° C. for 30 minutes, after which 100 μL was added to the cells for 5 minutes at 37° C. in 5% CO₂. Treatments were aspirated from cells, and cells were lysed with 100 μL cold lysis buffer [20 mM Tris-HCl, pH 7.5, 150 mM NaCl, 1 mM EDTA, 1% Triton X-100, 0.5 mM sodium orthovanadate (freshly prepared), 1 mM PMSF (freshly prepared), lx protease inhibitor cocktail (freshly prepared)] on ice for 10 minutes. Plates were centrifuged at 4000×g for 10 minutes before transferring the cell lysis to the AlphaLISA® assay plate.
To perform the AlphaLISA® assay, 10 μL of cell lysis was transferred to a white low volume 384 well Optiplate (Perkin Elmer). […] 10 μL of this reagent mixture was added to the assay plate that contained 10 μL of cell lysate. The assay plate was sealed and incubated in the dark for approximately 2 hours, then was read on a Biotek CYTATION™ 5 plate reader using the Alpha 384 well optical cube. Percent inhibition was calculated by subtracting TS buffer background from each value and normalizing to VEGF-A only controls. The values were fit by using a four-parameter non-linear fit in GraphPad Prism Version 7.0.

activity, > 50 % inhibition at 10 nM:
UAGGCCGCCUCCGCGCGGAGGGGUUUCAUUUAUCCCGUUUGGCGGCUUU (ssRNA, all G 2'-F; A,C,U 2'-OMe; 5' C6NH2; 3' idT) [Aptamer 30]
UAGUCCGCCUCCGCGCGGAGGGGUUUCAUUAUCCCGUUUGGCGGCUUU (ssRNA, all G 2'-F; A,C,U 2'-OMe; 5' C6NH2; 3' idT) [Aptamer 29]
UAGACCGCCUCCGCGCGGAGGGGUUUCAUUAUCCCGUUUGGCGGCUUU (ssRNA, all G 2'-F; A,C,U 2'-OMe; 5' C6NH2; 3' idT) [Aptamer 31]
UAGGCCGCCUCCGCGCGGAGGGGUUUCAUUAUCCCGUUUGGCGGCCUU (ssRNA, all G 2'-F; A,C,U 2'-OMe; 5' C6NH2; 3' idT) [Aptamer 32]

Target: T2, VEGF-A121
Assay: competition; TR-FRET
Settings: tags: glycan-biotinylated for SPR/FRET/AlphaLISA; Acro BioSystems, Biolegend; chain copies: 2 (stated)
Remark: another data set of the same source
Method: Briefly, for competition TR-FRET, 2-fold dilutions of thermally equilibrated aptamers were made in TR-FRET Buffer (50 mM MOPS, pH 7.4, 125 mM NaCl, 5 mM KCl, 50 μM CHAPS, 0.1 mg/mL BSA, 1 mM CaCl₂, and 1 mM MgCl₂). 5 μL of aptamer or control solution was added to a 15 μL mix of glycan biotinylated […] (5 nM final), ALEXA FLUOR® 647-labeled Aptamer (30 nM final), and Streptavidin-Eu (Perkin Elmer; 2.5 nM final) in a black wall low volume 384 well plate (Greiner). For control, 5 μl of 1000-fold excess of unlabeled parent aptamer or 5 μl TR-FRET buffer alone was added to the mix of ALEXA FLUOR® 647-labeled aptamer, biotin-VEGF-A, and Streptavidin-Eu. The plate was covered with a plate seal and subsequently incubated in the dark for 1 hour at room temperature. The plate was read on a Biotek CYTATION™ 5 plate reader. Samples were excited at 330 nm and fluorescent values were collected at 665 nm. Data analysis was performed by subtracting the background value and plotting as percent inhibition, normalized to baseline in the absence of competitor. The values were fit by [Inhibitor] vs. response-Variable slope (four parameters) using GraphPad Prism Version 7.0 and then normalized to aptamer control to obtain an IC₅₀ relative to parent aptamer. Data is presented as log values of relative IC₅₀.
Activity of each of these variants were tested using a time resolved competition TR-FRET assay, as described in Example 7, in which a labeled parent was competed with increasing concentrations of unlabeled variants for binding to VEGF-A₁₂₁.

Binding signal, > 100 fold worse IC50 vs Aptamer 26:
AGGCCGCCUCCGCGCGGAGGGGUUUCAUUAUCCCAUUUGGCGGCUU (ssRNA, all G 2'-F; A,C,U 2'-OMe; 5' C6NH2; 3' idT) [Aptamer 162]
AGGCCGCCUCCGCGCGGAGGGGUUUCAUUAUCCCCUUUGGCGGCUU (ssRNA, all G 2'-F; A,C,U 2'-OMe; 5' C6NH2; 3' idT) [Aptamer 163]
AGGCCGCCUCCGCGCGGAGGGGUUUCAUUAUCCCUUUUGGCGGCUU (ssRNA, all G 2'-F; A,C,U 2'-OMe; 5' C6NH2; 3' idT) [Aptamer 164]
AGGCCGCCUCCGCCCGGAGGGGUUUCAUUAUCCCGUUUGGCGGCUU (ssRNA, all G 2'-F; A,C,U 2'-OMe; 5' C6NH2; 3' idT) [Aptamer 156]
AGGCCGCCUCCGCGGGGAGGGGUUUCAUUAUCCCGUUUGGCGGCUU (ssRNA, all G 2'-F; A,C,U 2'-OMe; 5' C6NH2; 3' idT) [Aptamer 159]
